Test results as given in PMC4411300, “Reconstitution and structure of a bacterial Pnkp1–Rnl–Hen1 RNA repair complex” (Nature Communications, 2015).

What was measured:
[1] = molecular target: Capnocytophaga gingivalis Pnkp1 (Capnocytophaga gingivalis); assay: SEC; purified proteins analysed singly, or two proteins combined in equimolar and incubated at 4 °C for an hour before size-exclusion chromatography
[2] = molecular target: Hen1 in the Pnkp1–Rnl–Hen1 heterohexamer (CgiHen1) (Capnocytophaga gingivalis, UniProt Z9ZGS5E134); assay: X-ray crystal structure, […] Å, co-purified ligand; type: binding; settings: methyltransferase active site of Hen1; retained from E. coli expression, not added; weak density, low occupancy

stoichiometry N [1]	Compound	X-ray crystal structure, 3.4 Å, co-purified ligand [2]
2	Capnocytophaga gingivalis Pnkp1 (enzyme)	–
–	Nc1ncnc2c1ncn2[C@@H]1O[C@H](CSCC[C@H](N)C(=O)O)[C@@H](O)[C@H]1O [SAH]	SAH was modelled in the methyltransferase active site of Hen1-b
